Tests used:
[1] = molecular target: Kif18b-GFP-His (full-length Kif18-GFP-6×His) (human); test: single-molecule photobleaching (TIRF microscopy); Kif18b-GFP motors moving on GMP-CPP–stabilized microtubules; bleaching steps and intensities of GFP
[2] = molecular target: GMP-CPP–stabilized microtubules and dynamic microtubules grown from GMP-CPP seeds (TIRF assays) (UniProt P02550); test: single-molecule TIRF microscopy; rhodamine-labeled GMP-CPP microtubules held on the glass by anti–β-tubulin antibodies; 1–10 nM motor in BRB80 with 1 mM ATP, 0.5 mg/ml casein, oxygen scavengers; 37°C
[3] = molecular target: Kif18b-GFP-His (full-length Kif18-GFP-6×His) (human); test: SEC-MALS; Superdex 200 10/300 GL, MiniDAWN detector; Kif18b-GFP-His at 0.3 mg/ml in gel filtration buffer (25 mM Hepes, pH 7.5, 150 mM NaCl, 300 mM KCl, 5 mM β-mercaptoethanol, 1 mM MgCl2, 1 mM Na-EGTA, 1 mM ATP)
Kif18b_(500–593) (human) = test: SEC-MALS; Superdex 200 10/300 GL, MiniDAWN detector; protein at 2 mg/ml

Row | stoichiometry N [1] | dwell time at the microtubule plus end [2] [s] | stoichiometry N [3] | stoichiometry N (Kif18b_(500–593) (human)) | Substance
1 | 2 | 22.8 | 2 | – | Kif18b-GFP-His (full-length Kif18-GFP-6×His) (natural protein)
2 | – | – | – | 2 | Kif18b_(500–593) (domain or fragment)
3 | – | 8.5 | – | – | Kif18bΔC-GFP-His (domain or fragment)
